Measured values taken from patent EP1516629B1.
Residue numbers refer to the chain shown, from its start.

T1: human CD11a (human) (UniProt P20701)
T1 sequence (looked up): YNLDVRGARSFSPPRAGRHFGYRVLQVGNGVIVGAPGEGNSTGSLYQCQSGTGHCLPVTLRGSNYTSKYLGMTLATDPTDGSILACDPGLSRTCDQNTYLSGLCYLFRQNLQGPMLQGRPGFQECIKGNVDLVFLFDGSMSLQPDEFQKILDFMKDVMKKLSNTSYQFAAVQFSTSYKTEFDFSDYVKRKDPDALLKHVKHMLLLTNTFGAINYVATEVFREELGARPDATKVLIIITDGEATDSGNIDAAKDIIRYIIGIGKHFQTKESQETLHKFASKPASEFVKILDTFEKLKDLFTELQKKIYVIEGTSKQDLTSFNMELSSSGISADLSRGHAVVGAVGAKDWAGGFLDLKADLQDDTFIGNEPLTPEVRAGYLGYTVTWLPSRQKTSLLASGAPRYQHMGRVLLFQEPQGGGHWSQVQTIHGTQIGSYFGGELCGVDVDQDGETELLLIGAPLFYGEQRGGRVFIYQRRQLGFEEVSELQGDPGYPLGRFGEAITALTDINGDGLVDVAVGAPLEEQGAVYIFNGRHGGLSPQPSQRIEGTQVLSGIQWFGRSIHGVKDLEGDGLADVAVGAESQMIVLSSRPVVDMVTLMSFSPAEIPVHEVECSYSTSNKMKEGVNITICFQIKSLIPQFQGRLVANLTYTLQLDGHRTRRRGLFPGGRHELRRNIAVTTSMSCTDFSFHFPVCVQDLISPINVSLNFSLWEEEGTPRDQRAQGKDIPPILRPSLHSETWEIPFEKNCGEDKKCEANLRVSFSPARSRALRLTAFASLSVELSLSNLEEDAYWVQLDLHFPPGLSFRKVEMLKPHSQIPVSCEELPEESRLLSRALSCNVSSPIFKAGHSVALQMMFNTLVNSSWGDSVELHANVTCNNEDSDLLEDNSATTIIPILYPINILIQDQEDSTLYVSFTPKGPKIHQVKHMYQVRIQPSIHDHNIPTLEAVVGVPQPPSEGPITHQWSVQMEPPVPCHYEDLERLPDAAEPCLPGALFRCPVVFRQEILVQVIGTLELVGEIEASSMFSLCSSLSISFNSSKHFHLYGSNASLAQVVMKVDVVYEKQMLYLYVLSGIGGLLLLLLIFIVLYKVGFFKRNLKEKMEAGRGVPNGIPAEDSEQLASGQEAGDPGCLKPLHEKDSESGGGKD

T2: rhesus CD11a (rhesus) (UniProt H9Z8N3)
T2 sequence: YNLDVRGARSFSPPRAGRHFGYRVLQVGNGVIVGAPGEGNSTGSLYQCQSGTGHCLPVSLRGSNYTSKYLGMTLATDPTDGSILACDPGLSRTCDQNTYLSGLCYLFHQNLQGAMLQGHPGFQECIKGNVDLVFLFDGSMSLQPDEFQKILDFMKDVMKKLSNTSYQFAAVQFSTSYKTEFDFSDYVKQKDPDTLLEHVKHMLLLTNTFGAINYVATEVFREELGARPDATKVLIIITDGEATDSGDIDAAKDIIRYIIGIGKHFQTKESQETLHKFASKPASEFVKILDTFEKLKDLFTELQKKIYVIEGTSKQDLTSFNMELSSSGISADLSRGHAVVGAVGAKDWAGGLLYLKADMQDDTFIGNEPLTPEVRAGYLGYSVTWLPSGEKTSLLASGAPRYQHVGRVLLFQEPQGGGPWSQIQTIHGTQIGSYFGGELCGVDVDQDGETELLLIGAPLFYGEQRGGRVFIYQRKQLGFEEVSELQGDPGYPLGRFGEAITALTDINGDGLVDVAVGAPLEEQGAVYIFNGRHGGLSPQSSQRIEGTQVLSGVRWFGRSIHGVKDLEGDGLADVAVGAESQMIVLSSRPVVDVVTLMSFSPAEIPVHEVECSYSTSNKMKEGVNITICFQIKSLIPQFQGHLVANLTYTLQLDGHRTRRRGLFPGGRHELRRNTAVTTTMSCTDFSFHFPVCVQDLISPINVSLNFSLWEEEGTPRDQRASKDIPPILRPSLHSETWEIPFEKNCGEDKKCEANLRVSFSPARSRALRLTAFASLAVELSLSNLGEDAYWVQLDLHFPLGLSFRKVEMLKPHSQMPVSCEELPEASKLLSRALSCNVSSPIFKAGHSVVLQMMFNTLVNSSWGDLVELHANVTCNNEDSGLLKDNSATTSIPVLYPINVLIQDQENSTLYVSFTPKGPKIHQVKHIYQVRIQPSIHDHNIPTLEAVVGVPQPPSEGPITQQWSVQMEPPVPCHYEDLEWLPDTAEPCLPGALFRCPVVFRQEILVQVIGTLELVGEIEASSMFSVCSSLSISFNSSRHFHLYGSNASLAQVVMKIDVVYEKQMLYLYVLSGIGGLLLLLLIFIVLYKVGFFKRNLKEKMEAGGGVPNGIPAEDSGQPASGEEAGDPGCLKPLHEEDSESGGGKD

B1: L1 variant IgG1 (antibody, V domains shown)
VH: EVQLVESGGGLVQPGGSLRLSCAASGYSFTGHWMNWVRQAPGKGLEWVGMIHPSDSETRYNQKFKDRFTISVDKSKNTLYLQMNSLRAEDTAVYYCARGIYFYGTTYFDYWGQGTLVTVSS
VL: DIQMTQSPSSLSASVGDRVTITCRASAAIAAYLAWYQQKPGKAPKLLIYSGSTLQSGVPSRFSGSGSGTDFTLTISSLQPEDFATYYCQQHNEYPLTFGQGTKVEIKR
B2: AspH54Lys variant IgG1 (antibody, V domains shown)
VH: B1 VH with D55K
VL: DIQMTQSPSSLSASVGDRVTITCRASKTISKYLAWYQQKPGKAPKLLIYSGSTLQSGVPSRFSGSGSGTDFTLTISSLQPEDFATYYCQQHNEYPLTFGQGTKVEIK
B3: GluL93Ala variant IgG1 (antibody, V domains shown)
VH: B1 VH
VL: B1 VL with A27K, A28T, A30S, A31K, E93A
B4: SerL52Ala variant IgG1 (antibody, V domains shown)
VH: B1 VH
VL: B1 VL with A27K, A28T, A30S, A31K, S52A
B5: AspH54Ser variant IgG1 (antibody, V domains shown)
VH: B1 VH with D55S
VL: B2 VL
B6: H2C7 variant IgG1 (antibody, V domains shown)
VH: B1 VH with H52A, S54A, D55A, E57A
VL: B2 VL
B7: AspH54Gln variant IgG1 (antibody, V domains shown)
VH: B1 VH with D55Q
VL: B2 VL
B8: H2C5 variant IgG1 (antibody, V domains shown)
VH: B1 VH with H52A, S54A, D55N, E57N
VL: B2 VL
B9: ThrL53Ala variant IgG1 (antibody, V domains shown)
VH: B1 VH
VL: B1 VL with A27K, A28T, A30S, A31K, T53A
B10: AspH54Asn variant IgG1 (antibody, V domains shown)
VH: B1 VH with D55N
VL: B2 VL
B11: H2C6 variant IgG1 (antibody, V domains shown)
VH: B1 VH with H52A, S54A, D55N, E57Q
VL: B2 VL
B12: H2 variant IgG1 (antibody, V domains shown)
VH: B1 VH with H52A, S54A, S56A
VL: B2 VL
B13: ThrH30Ala variant IgG1 (antibody, V domains shown)
VH: B1 VH with T30A
VL: B2 VL
B14: H2C14 variant IgG1 (antibody, V domains shown)
VH: B1 VH with H52A, S54A, D55S, E57A
VL: B2 VL
B15: GlyH31Ala variant IgG1 (antibody, V domains shown)
VH: B1 VH with G31A
VL: B2 VL
B16: GluH56Ala variant IgG1 (antibody, V domains shown)
VH: B1 VH with E57A
VL: B2 VL
B17: TyrH100cAla variant IgG1 (antibody, V domains shown)
VH: B1 VH with Y107A
VL: B2 VL
B18: H2C4 variant IgG1 (antibody, V domains shown)
VH: B1 VH with H52A, S54A, D55N, E57A
VL: B2 VL
B19: AsnL92Ala variant IgG1 (antibody, V domains shown)
VH: B1 VH
VL: B1 VL with A27K, A28T, A30S, A31K, N92A
B20: H2A1 variant IgG1 (antibody, V domains shown)
VH: B1 VH with H52A, S54A
VL: B2 VL
B21: AspH54Ala variant IgG1 (antibody, V domains shown)
VH: B1 VH with D55A
VL: B2 VL
B22: H2C9 variant IgG1 (antibody, V domains shown)
VH: B1 VH with H52A, S54A, D55A, E57N
VL: B2 VL
B23: SerL50Ala variant IgG1 (antibody, V domains shown)
VH: B1 VH
VL: B1 VL with A27K, A28T, A30S, A31K, S50A
B24: H2C10 variant IgG1 (antibody, V domains shown)
VH: B1 VH with H52A, S54A, D55A, E57S
VL: B2 VL
B25: ThrH100bAla variant IgG1 (antibody, V domains shown)
VH: B1 VH with T106A
VL: B2 VL

How the values were obtained:
human CD11a (human) = biological target: T1, human CD11a (human); assay: FACScan, Jurkat cells
rhesus CD11a (rhesus) = biological target: T2, rhesus CD11a (rhesus); assay: binding to rhesus peripheral blood lymphocytes

Binder	Var.EC50/HuIgG1 EC50 (human CD11a (human))	Var.EC50/HuIgG1 EC50 (rhesus CD11a (rhesus))	other results
B1	1.3	1	–
B2	–	–	Variant EC50/HulgG1 EC50 (rhesus CD11a (rhesus)): 3.8
B3	1.7	2.9	–
B4	1.1	13.3	–
B5	–	–	Variant EC50/HulgG1 EC50 (rhesus CD11a (rhesus)): 0.9
B6	2.4	1.03	–
B7	–	–	Variant EC50/HulgG1 EC50 (human CD11a (human)): 20; Variant EC50/HulgG1 EC50 (rhesus CD11a (rhesus)): 4.4
B8	46	0.11	–
B9	0.9	0.7	–
B10	–	–	Variant EC50/HulgG1 EC50 (human CD11a (human)): 26; Variant EC50/HulgG1 EC50 (rhesus CD11a (rhesus)): 0.1; fold improvement in binding over HuIgG1 (rhesus CD11a (rhesus)): 10 fold
B11	–	0.21	–
B12	14.1	0.055	fold better binding than HuIgG1 (rhesus CD11a (rhesus)): 18 fold
B13	1.7	1.3	–
B14	–	0.021	–
B15	1.2	2.4	–
B16	4	0.3	fold improvement in binding over HuIgG1 (rhesus CD11a (rhesus)): 3 fold
B17	7.6	–	–
B18	–	0.38	–
B19	3.3	3.3	–
B20	10.8	0.013	fold improvement in binding over HuIgG1 (rhesus CD11a (rhesus)): 77 fold
B21	147	0.3	Variant EC50/HulgG1 EC50 (human CD11a (human)): 147; Variant EC50/HulgG1 EC50 (rhesus CD11a (rhesus)): 0.3; fold improvement in binding over HuIgG1 (rhesus CD11a (rhesus)): 3 fold
B22	34.3	0.22	–
B23	1.2	2.7	–
B24	14.2	0.22	–
B25	1.4	–	–
